Values joined by “and” are separate entries in the source; they are usually repeats but may differ in a detail not shown here. Identical values can stand only once.
How the values were obtained:
[1] = tested on: AchE-containing ventral spinal cord neurons; assay: Count of AchE-containing neurons in ventral spinal cord cultures; format: cell-based, rat; conditions: CNTF 10 ng/ml at plating; 7 days
Protocol: Sprague-Dawley rats (HSD or Zivic-Miller) were used for all experiments. Pregnant rats (E14) were sacrificed as described in 10.1.1.
Spinal cords were removed aseptically from rat embryos as described in 10.1.2. The cord tissues were minced into small pieces and incubated in 0.1% trypsin (GIBCO) and 0.01% deoxyribonuclease type 1 (Sigma) at 37° C. for 20 minutes. Trypsin solution was then removed, rinsed and replaced with medium consisting of 45% Eagle's minimum essential medium (MEM), 45% Ham's nutrient mixture F12 (F12), 5% fetal calf serum (GIBCO), 5% horse serum (GIBCO) glutamine (2 mM), penicillin G (0.5 U/ml), and streptomycin (0.5 ug/ml). This was then mechanically dissociated twice by gentle trituration through a Pasteur pipet in the same medium, and the supernatants were pooled and filtered through a nylon filter (Nitex, Tetko; 40 um). Total cell number yielded was determined by hemocytometer counting in the presence of trypan blue. Dissociated ventral cells were then plated at a density of approximately 50,000 cells/cm^2 on dishes coated with poly-L-ornithine (10 ug/ml) and laminin (5 ug/ml). Treatments were given on the day of plating, except for delayed addition experiments in which treatments were given on days 2 or 6. Cultures were maintained at 37° C. in 95% air/5% CO2 atmosphere at nearly 100% relative humidity. Culture medium was changed every 3 to 4 days. […]

[2] = tested on: motorneurons in the facial nerve nuclei; assay: Unilateral facial nerve lesion in newborn rat with gelfoam implant, motorneuron count; format: in vivo
Protocol: The facial nerves of newborn rat pups were sectioned unilaterally and small gelfoam implants containing either 5 μg bovine serum albumin or 5 μg CNTF were placed at the lesion sites. […] After one week, the animals were sacrificed and sections of their brainstem, containing a facial nerve nucleus on the same side as the lesioned nerve (ipsilateral to the lesion) and a facial nerve nucleus on the side opposite to the lesion (contralateral to the lesion) were produced. The contralateral facial nucleus served as an internal control. Facial nucleus sections were stained with either Nissl stain (to stain motorneurons) or with antibody to glial fibrillary acidic protein (to detect the respose of glial cells to injury).

[3] = gelfoam implant impregnated with CNTF, one week
[4] = gelfoam with 5 μg purified rat sciatic nerve CNTF, one week after lesion
[5] = single animals, gelfoam with 5 μg purified rat sciatic nerve CNTF, one week after lesion

B1: CNTF: ciliary neurotrophic factor; recombinant rat CNTF in Sections 10, 15, 17, purified rat sciatic nerve CNTF in Section 11; see endpoint conditions (protein, UniProt P20294 1-200, looked up)
Ciliary neurotrophic factor: MAFAEQTPLTLHRRDLCSRSIWLARKIRSDLTALMESYVKHQGLNKNINLDSVDGVPVASTDRWSEMTEAERLQENLQAYRTFQGMLTKLLEDQRVHFTPTEGDFHQAIHTLMLQVSAFAYQLEELMVLLEQKIPENEADGMPATVGDGGLFEKKLWGLKVLQELSQWTVRSIHDLRVISSHQMGISALESHYGAKDKQM
increase in AchE-positive neurons versus untreated controls [1]: 2.5 fold | facial nerve motorneurons rescued that would normally have died after axotomy ([2]; CNTF applied to cut stump of newborn rat facial nerve): at least 60% | loss of motorneurons ipsilateral to the lesion [2, 3]: ~30% | motorneuron pool ipsilateral to the lesion, of normal [2, 3]: 70% | gliosis in facial nuclei ipsilateral to lesion (anti-GFAP staining), versus BSA treated rats ([2]; gelfoam with 5 μg CNTF): comparable amount of gliosis | Count of motorneurons in the facial nerve nuclei, Contralateral (Control side), group mean (in brackets) [2, 4]: (3301) | Count of motorneurons in the facial nerve nuclei, Lesion-side, group mean (in brackets) [2, 4]: (2120) | Count of motorneurons in the facial nerve nuclei, Contralateral (Control side) [2, 5]: 3425 and 2990 and 3490 | Count of motorneurons in the facial nerve nuclei, Lesion-side [2, 5]: 2205 and 3445 and 1270 and 3095

Source: patent US6602687B1, “DNA encoding human ciliary neurotrophic factor and method for producing the protein encoded thereby” (Regeneron Pharmaceuticals, Inc., priority 1989, dated 2003)
